Assay results taken from PMC6364316 (Vaccine, 2018).

Experiments:
[1] = target: T1, gp120 (HIV-1, strain  for this …, UniProt Q75760); assay: SPR
[2] = target: T1, gp120; assay: ELISA

B1: IgG b12 (antibody, V domains shown)
VH: QVQLVQSGAEVKKPGASVKVSCQASGYRFSNFVIHWVRQAPGQRFEWMGWINPYNGNKEFSAKFQDRVTFTADTSANTAYMELRSLRSADTAVYYCARVGPYSWDDSPQDNYYMDVWGKGTTVIVSS
VL: EIVLTQSPGTLSLSPGERATFSCRSSHSIRSRRVAWYQHKPGQAPRLVIHGVSNRASGISDRFSGSGSGTDFTLTITRVEPEDFALYYCQVYGASSYTFGQGTKLERK
[1]
  Kd: 36 ± 2 nM
  koff: 0.0052 s⁻¹
[2]
  10 times EC50: 1 µg/mL
